In patent US20240287138A1 (Merck Sharp & Dohme, published 2024):
Numbered stars: 1 amine (or outer) side, 2 acyl side, 3 side chain; on linkers, the order of the positions; unused ones are H or OH. Bridge positions count the residues as written; N and C are the ends. Square brackets hold non-standard residues; d marks the D form. Primed or numbered codes have the meaning given here. NEtCNG = 2-(2-Cyanoethylamino)acetic acid ((2-cyanoethyl)glycine), N#CCCN(CC(=O)[*:2])[*:1]; bhcLeu = (1R,3S)-3-aminocyclopentane-1-carboxylic acid, O=C([C@@H]1CC[C@H](N[*:1])C1)[*:2]; Trp(βS-Me,7-OMe) = COc1cccc2c([C@H](C)[C@H](N)C(=O)O)c[nH]c12; Trp(βS-Me) = C[C@@H](c1c[nH]c2ccccc12)[C@H](N)C(=O)O; Trp(7-Cl) = N[C@@H](Cc1c[nH]c2c(Cl)cccc12)C(=O)O; Phe(3-COOH) = N[C@@H](Cc1cccc(C(=O)O)c1)C(=O)O; Phe(4-CONH2) = NC(=O)c1ccc(C[C@H](N)C(=O)O)cc1; Phe(4-COOH) = N[C@@H](Cc1ccc(C(=O)O)cc1)C(=O)O; Trp(7-aza) = N[C@@H](Cc1c[nH]c2ncccc12)C(=O)O; Phe(4-CH2NH2) = NCc1ccc(C[C@H](N)C(=O)O)cc1; 3Pal(6-OMe) = COc1ccc(C[C@H](N)C(=O)O)cn1; Pip(5R-OH) = O=C(O)[C@@H]1CC[C@@H](O)CN1; αMeW = C[C@](N)(Cc1c[nH]c2ccccc12)C(=O)O; Ala(2-furyl) = N[C@@H](Cc1ccco1)C(=O)O; 2Nal = N[C@@H](Cc1ccc2ccccc2c1)C(=O)O; Dap(CONH2) = NC(=O)NC[C@H](N)C(=O)O; Pip(4-aza) = O=C(O)[C@@H]1CNCCN1; 3Pal = N[C@@H](Cc1cccnc1)C(=O)O; 4Pal = N[C@@H](Cc1ccncc1)C(=O)O; NMeE = CN[C@@H](CCC(=O)O)C(=O)O; 2SBrBu = not defined here; 2SBrPr = not defined here; NMeS = CN[C@@H](CO)C(=O)O; Pip = O=C(O)[C@@H]1CCCCN1; αMeS = C[C@](N)(CO)C(=O)O; Nle = CCCC[C@H](N)C(=O)O; Pip2c = not defined here; SBrPh = not defined here; Ahp′ = not defined here; Dab = NCC[C@H](N)C(=O)O; Spip = not defined here; Dap = NC[C@H](N)C(=O)O; Sar = CNCC(=O)O

T1: TNFR1 on THP-1 Lucia NF-κB cells (UniProt P19438 30-455, limits assumed)
T1 sequence (looked up): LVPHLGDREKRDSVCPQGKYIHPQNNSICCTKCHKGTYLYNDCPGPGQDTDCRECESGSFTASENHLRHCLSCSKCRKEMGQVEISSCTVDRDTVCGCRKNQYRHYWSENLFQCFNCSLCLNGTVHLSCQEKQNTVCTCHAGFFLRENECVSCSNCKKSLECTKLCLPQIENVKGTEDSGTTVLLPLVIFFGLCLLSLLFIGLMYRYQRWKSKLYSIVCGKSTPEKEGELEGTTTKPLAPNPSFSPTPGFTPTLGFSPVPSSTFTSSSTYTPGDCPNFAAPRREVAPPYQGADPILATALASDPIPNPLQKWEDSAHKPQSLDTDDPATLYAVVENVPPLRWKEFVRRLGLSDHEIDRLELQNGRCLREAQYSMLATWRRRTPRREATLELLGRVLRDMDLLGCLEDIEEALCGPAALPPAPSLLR

B1: SEQ ID NO. 274 (peptide)
peptide: SBrPh-[Nle][4Pal]S[Trp(7-aza)][NMeE]N[4Pal][Trp(7-Cl)][αMeS][Phe(4-COOH)]Y[Sar][αMeW]C-NH2
modifications: thioether N-14; reading uncertain; also: printed as cyclo(SBrPh-Nle-4Pal-S-Trp7az-NMeE-N-4Pal-Trp7Cl-aMeS-Phe4COOH-Y-Sar-aMeW-C)-NH2
B2: SEQ ID NO. 228 (peptide)
peptide: {CH2CO}-[Nle][4Pal][Pip][Trp(7-aza)][NEtCNG]N[4Pal][Trp(7-Cl)][αMeS][Phe(4-COOH)]Y[Sar][Trp(βS-Me,7-OMe)]C-NH2
modifications: thioether N-14
SMILES: CCCC[C@@H]1NC(=O)CSC[C@@H](C(N)=O)NC(=O)[C@H]([C@@H](C)c2c[nH]c3c(OC)cccc23)NC(=O)CN(C)C(=O)[C@H](Cc2ccc(O)cc2)NC(=O)[C@H](Cc2ccc(C(=O)O)cc2)NC(=O)[C@](C)(CO)NC(=O)[C@H](Cc2c[nH]c3c(Cl)cccc23)NC(=O)[C@H](Cc2ccncc2)NC(=O)[C@H](CC(N)=O)NC(=O)CN(CCC#N)C(=O)[C@H](Cc2c[nH]c3ncccc23)NC(=O)[C@@H]2CCCCN2C(=O)[C@H](Cc2ccncc2)NC1=O
B3: SEQ ID NO. 246 (peptide)
peptide: 2SBrBu-[Nle][4Pal][Spip]W[NMeE]N[4Pal][Trp(7-Cl)][αMeS][Phe(4-CONH2)]Y[Sar][Trp(βS-Me,7-OMe)]C-NH2
modifications: thioether N-14; reading uncertain; also: printed as cyclo(2SBrBu-Nle-4Pal-Spip-W-NMeE-N-4Pal-Trp7Cl-aMeS-Phe4CONH2-Y-Sar-SbMeW7OMe-C)-NH2
B4: SEQ ID NO. 277 (peptide)
peptide: {CH2CO}-[Nle][4Pal][Dab][Trp(7-aza)][NMeE]N[4Pal][Trp(7-Cl)][αMeS][Phe(4-COOH)]Y[Sar][αMeW]C-NH2
modifications: thioether N-14
SMILES: CCCC[C@@H]1NC(=O)CSC[C@@H](C(N)=O)NC(=O)[C@](C)(Cc2c[nH]c3ccccc23)NC(=O)CN(C)C(=O)[C@H](Cc2ccc(O)cc2)NC(=O)[C@H](Cc2ccc(C(=O)O)cc2)NC(=O)[C@](C)(CO)NC(=O)[C@H](Cc2c[nH]c3c(Cl)cccc23)NC(=O)[C@H](Cc2ccncc2)NC(=O)[C@H](CC(N)=O)NC(=O)[C@H](CCC(=O)O)N(C)C(=O)[C@H](Cc2c[nH]c3ncccc23)NC(=O)[C@H](CCN)NC(=O)[C@H](Cc2ccncc2)NC1=O
B5: SEQ ID NO. 273 (peptide)
peptide: XXXXENXXXXYGXC
modifications: not fully specified; cyclo(2SBrPr-Nle-4Pal-Bav-Trp7az-NMeE-N-4Pal-Trp7Cl-aMeS-Phe4CONH2-Y-Sar-SbMeW7OMe-C)-NH2
B6: SEQ ID NO. 249 (peptide)
peptide: {CH2CO}-[Nle][4Pal][Pip(4-aza)]W[NMeE]N[4Pal][Trp(7-Cl)][αMeS][Phe(3-COOH)]Y[Sar][Trp(βS-Me,7-OMe)]C-NH2
modifications: thioether N-14
SMILES: CCCC[C@@H]1NC(=O)CSC[C@@H](C(N)=O)NC(=O)[C@H]([C@@H](C)c2c[nH]c3c(OC)cccc23)NC(=O)CN(C)C(=O)[C@H](Cc2ccc(O)cc2)NC(=O)[C@H](Cc2cccc(C(=O)O)c2)NC(=O)[C@](C)(CO)NC(=O)[C@H](Cc2c[nH]c3c(Cl)cccc23)NC(=O)[C@H](Cc2ccncc2)NC(=O)[C@H](CC(N)=O)NC(=O)[C@H](CCC(=O)O)N(C)C(=O)[C@H](Cc2c[nH]c3ccccc23)NC(=O)[C@@H]2CNCCN2C(=O)[C@H](Cc2ccncc2)NC1=O
B7: SEQ ID NO. 225 (peptide)
peptide: cyclo([bhcLeu][Nle][4Pal][Pip(4-aza)]W[NMeE][Dap(CONH2)][4Pal][Trp(7-Cl)][αMeS][Phe(4-COOH)]Y[Sar][Trp(βS-Me,7-OMe)])
SMILES: CCCC[C@@H]1NC(=O)[C@@H]2CC[C@@H](C2)NC(=O)[C@H]([C@@H](C)c2c[nH]c3c(OC)cccc23)NC(=O)CN(C)C(=O)[C@H](Cc2ccc(O)cc2)NC(=O)[C@H](Cc2ccc(C(=O)O)cc2)NC(=O)[C@](C)(CO)NC(=O)[C@H](Cc2c[nH]c3c(Cl)cccc23)NC(=O)[C@H](Cc2ccncc2)NC(=O)[C@H](CNC(N)=O)NC(=O)[C@H](CCC(=O)O)N(C)C(=O)[C@H](Cc2c[nH]c3ccccc23)NC(=O)[C@@H]2CNCCN2C(=O)[C@H](Cc2ccncc2)NC1=O
B8: SEQ ID NO. 226 (peptide)
peptide: {CH2CO}-[Ahp′]Y[AlaPiperaz][Trp(βS-Me)][dP]N[4Pal][Trp(7-Cl)][αMeS][Phe(4-COOH)][3Pal][Sar][αMeW]C-NH2
modifications: thioether N-14; reading uncertain; also: printed as cyclo(ClAc-Ahp-Y-AlaPiperaz-SbMeW-dP-N-4Pal-Trp7Cl-aMeS-Phe4COOH-3Pal-Sar-aMeW-C)-NH2
B9: SEQ ID NO. 250 (peptide)
peptide: 2SBrPr-[Nle][Phe(4-CH2NH2)]S[Trp(7-aza)][NMeE]N[4Pal][Trp(7-Cl)][αMeS][Phe(4-CONH2)]Y[Sar][Trp(βS-Me,7-OMe)]C-NH2
modifications: thioether N-14; reading uncertain; also: printed as cyclo(2SBrPr-Nle-Phe4CH2NH2-S-Trp7az-NMeE-N-4Pal-Trp7Cl-aMeS-Phe4CONH2-Y-Sar-SbMeW7OMe-C)-NH2
B10: SEQ ID NO. 241 (peptide)
peptide: cyclo([bhcLeu][Nle][3Pal(6-OMe)][Pip(4-aza)]W[NMeE]N[4Pal][Trp(7-Cl)][αMeS][Phe(4-COOH)]Y[Sar][Trp(βS-Me,7-OMe)])
SMILES: CCCC[C@@H]1NC(=O)[C@@H]2CC[C@@H](C2)NC(=O)[C@H]([C@@H](C)c2c[nH]c3c(OC)cccc23)NC(=O)CN(C)C(=O)[C@H](Cc2ccc(O)cc2)NC(=O)[C@H](Cc2ccc(C(=O)O)cc2)NC(=O)[C@](C)(CO)NC(=O)[C@H](Cc2c[nH]c3c(Cl)cccc23)NC(=O)[C@H](Cc2ccncc2)NC(=O)[C@H](CC(N)=O)NC(=O)[C@H](CCC(=O)O)N(C)C(=O)[C@H](Cc2c[nH]c3ccccc23)NC(=O)[C@@H]2CNCCN2C(=O)[C@H](Cc2ccc(OC)nc2)NC1=O
B11: SEQ ID NO. 255 (peptide)
peptide: {CH2CO}-[Nle][4Pal][Pip(4-aza)][Trp(7-aza)][NMeE]N[4Pal][Trp(7-Cl)][αMeS][Phe(4-COOH)]Y[Sar][Trp(βS-Me,7-OMe)]CGEE-NH2
modifications: thioether N-14
SMILES: CCCC[C@@H]1NC(=O)CSC[C@@H](C(=O)NCC(=O)N[C@@H](CCC(=O)O)C(=O)N[C@@H](CCC(=O)O)C(N)=O)NC(=O)[C@H]([C@@H](C)c2c[nH]c3c(OC)cccc23)NC(=O)CN(C)C(=O)[C@H](Cc2ccc(O)cc2)NC(=O)[C@H](Cc2ccc(C(=O)O)cc2)NC(=O)[C@](C)(CO)NC(=O)[C@H](Cc2c[nH]c3c(Cl)cccc23)NC(=O)[C@H](Cc2ccncc2)NC(=O)[C@H](CC(N)=O)NC(=O)[C@H](CCC(=O)O)N(C)C(=O)[C@H](Cc2c[nH]c3ncccc23)NC(=O)[C@@H]2CNCCN2C(=O)[C@H](Cc2ccncc2)NC1=O
B12: SEQ ID NO. 264 (peptide)
peptide: {CH2CO}-[Nle]H[Pip2c][Trp(7-aza)][NMeE]N[4Pal][Trp(7-Cl)][αMeS][Phe(4-COOH)]Y[Sar][Trp(βS-Me,7-OMe)]C-NH2
modifications: thioether N-14; reading uncertain; also: printed as cyclo(ClAc-Nle-H-Pip2c-Trp7az-NMeE-N-4Pal-Trp7Cl-aMeS-Phe4COOH-Y-Sar-SbMeW7OMe-C)-NH2
B13: SEQ ID NO. 236 (peptide)
peptide: {CH2CO}-[Nle][4Pal][Pip(4-aza)]W[dP]N[Ala(2-furyl)][Trp(7-Cl)][αMeS][Phe(4-COOH)]Y[Sar][Trp(βS-Me,7-OMe)]C-NH2
modifications: thioether N-14
SMILES: CCCC[C@@H]1NC(=O)CSC[C@@H](C(N)=O)NC(=O)[C@H]([C@@H](C)c2c[nH]c3c(OC)cccc23)NC(=O)CN(C)C(=O)[C@H](Cc2ccc(O)cc2)NC(=O)[C@H](Cc2ccc(C(=O)O)cc2)NC(=O)[C@](C)(CO)NC(=O)[C@H](Cc2c[nH]c3c(Cl)cccc23)NC(=O)[C@H](Cc2ccco2)NC(=O)[C@H](CC(N)=O)NC(=O)[C@H]2CCCN2C(=O)[C@H](Cc2c[nH]c3ccccc23)NC(=O)[C@@H]2CNCCN2C(=O)[C@H](Cc2ccncc2)NC1=O
B14: SEQ ID NO. 237 (peptide)
peptide: {CH2CO}-[Ahp′][4Pal]S[Trp(βS-Me)][dP]N[Phe(4-COOH)][2Nal][αMeS][Phe(4-COOH)]H[Sar][αMeW]C-NH2
modifications: thioether N-14; reading uncertain; also: printed as cyclo(ClAc-Ahp-4Pal-S-SbMeW-dP-N-Phe4COOH-2Nal-aMeS-Phe4COOH-H-Sar-aMeW-C)-NH2

These binders were tested against T1, TNFR1 on THP-1 Lucia NF-κB cells (assay: cell-based or functional assay).

| Binder | THP-1 IC50 [nM] |
| --- | --- |
| B1 | 3.2 |
| B2 | 4 |
| B3 | 4.3 |
| B4 | 3 |
| B5 | 4.1 |
| B6 | 4.4 |
| B7 | 0.9 |
| B8 | 10 |
| B9 | 2.4 |
| B10 | 1.4 |
| B11 | 6.5 |
| B12 | 8.1 |
| B13 | 4.2 |
| {CH2CO}-[Nle][4Pal][NMeS]W[NMeE]N[4Pal][Trp(7-Cl)][αMeS][Phe(4-COOH)][Phe3CONH2][Sar][Trp(βS-Me,7-OMe)]C-NH2 (thioether N-14) [SEQ ID NO. 270] | 2.2 |
| {CH2CO}-[LysN3][4Pal][Dap][Trp(βS-Me)][dP]N[4Pal][Trp(7-Cl)][αMeS][Phe(4-COOH)][Phe(4-CH2NH2)][Sar][αMeW]C-NH2 (thioether N-14) [SEQ ID NO. 245] | 9.4 |
| cyclo([bhcLeu][LysMe2][4Pal][Pip(5R-OH)]W[NMeE]N[4Pal][Trp(7-Cl)][αMeS][Phe(4-CONH2)]Y[Sar][Trp(βS-Me,7-OMe)]) [SEQ ID NO. 238] | 0.7 |
| B14 | 20.8 |
